In PMC9769368:

Target: AAVGo.1 virus-like particles (goat adeno-associated virus capsid, without DNA genome) (goat adeno-associated virus AAVGo.1)
Test: ELISA; direct ELISA in duplicate; AAV VLPs (2.5 ug/mL) coated on plates in 100 mM NaHCO3 pH 9.6, washed with TBST; N-terminally His-tagged AAVR fragment added, detected with anti-6x His HRP antibody; OD 450 nm; EC50 by nonlinear regression (avidity)

Substance | fold stronger binding avidity than AAV5 [fold]
His6PKD1, fragment of human AAV receptor (AAVR) with PKD domain 1 (domain or fragment) | 3
His6PKD12, fragment of human AAV receptor (AAVR) with PKD domains 1 and 2 (domain or fragment) | 2
